Measurements taken from patent US20260258115A1 (MAPP BIOPHARMACEUTICAL, published 2026).

What was measured:
[1] = molecular target: RSV prefusion F (preF), subtype B (respiratory syncytial virus, subtype B); assay: BLI, IgG
[2] = molecular target: T1, RSV postfusion F (postF), subtype A (respiratory syncytial virus, subtype A, UniProt P03420 26-513); assay: BLI, IgG
T1 construct: also called F ΔFP; Postfusion subtype A

[3] = molecular target: RSV prefusion F (preF), subtype A (respiratory syncytial virus, subtype A, UniProt P03420 26-513); assay: BLI, IgG
[4] = molecular target: RSV fusion glycoprotein (RSV F) on RSV-A2 virus (respiratory syncytial virus, UniProt P03420 26-574); assay: cell-based or functional assay

Binder	Kd [1]	binding result [2]	Kd [3]	Neutralization IC50 (RSV subtype A) [4]	Kd [2]
ADI-21051 (antibody, V domains shown) VH: QVQLVESGPGLVRPSQTLSLTCNVSGDFISRGTYYWSWIRQSAGKGLEWIGRIYTSGITDYSPSLKSRVTISVDTSKNQFFLKLASVTAADTAVYYCARGRGYYDSPWGQGTLVTVSS VL: ETTLTQSPATLSLSPGERATLSCRASESVSTFLGWYQQKPGQAPRLLIYDASNRASGVPARFSGSGSGTDFTLTISSLEPEDFAVYYCQLRNKWLTFGPGTKVDIK	0.335 nM	no binding	0.292 nM		
ADI-21034 (antibody, V domains shown) VH: QVQLQQSGAEVKKPGESLTISCKGSGYSFGNYWISWVRQMPGKGLEWMGRIDPSDSYVNYSPSFQGNVTMSVDKSSSTAYLQWSSLKASDTAMYYCARLAGYSTLWGQGTLVTVSS VL: EIVLTQSPGTLSLSPGERATLSCRASQSFGSIYLAWYQQKPGQAPRLLIYGTSSRATGIPDRFSGSGSGTDFTLTIRRLEPEDFAVYYCLYYGSSPGATFGPGTKVDIK	0.174 nM	no binding	0.145 nM		
ADI-41357 (antibody, V domains shown) VH: EVQLVESGGGLVQPGGSLRLSCAASGFTFSTYGMNWVRQAPGKGLEWVSYIGGSGRIIYYADSVKGRFTISRDNAKNSLYLQMNSLRAEDTAVYYCARDQHIVLVTGSTPDYWGQGTLVTVSS VL: EIVLTQSPSSLSASVGDRVTITCRASHAISNYLAWFQQKPGKAPKSLIYAASTLQSGVPSKFSGSGSGTDFTLTISSLQPEDFATYYCQQYSSYPLTFGGGTKVEIK				> 25 µg/mL	
ADI-41351 (antibody, V domains shown) VH: QVQLVQSGGGLVQPGGSLRLSCSASGFTFSSKSMHWVRQAPGKGLEYVSAIRSDGVSTYYGDSVKGRFTVSRDNAKNTVYLRMSSLRREDTAVYYCVKGPYGDFQYNWFDTWGQGTLVTVSS VL: not shown				0.149 µg/mL	
ADI-21063 (antibody, V domains shown) VH: EVQLVESGGGLVQPGGSLRLSCSASGFTFRTYVMQWVRQAPGKGLEYVSAISSDGGSTDYADSVKGRFTVSRDNSKNTLYLQMSSLRAEDTAVYYCVKRGEGGNDYLYYYMDVWGKGTTVTVSS VL: DIQVTQSPSSLSASVGDRVTITCRASQSITNYLNWYQQKPGKAPKVLIYAASSLQSGVPSRFSGSGSGTDFTLTISSLQPEDFATYYCQQSYLRPPTFGGGTKVEIK	0.777 nM	no binding	0.834 nM		
ADI-41359 (antibody, V domains shown) VH: EVQLVESGGGLVKPGGSLRLSCAASGFTISGYSMDWVRQAPGKGLEWVSSISSSSSYIHYADSVKGRFTISRDNAKNSLYLQMNSLRAEDTAVYYCATNPREGGAFDIWGQGTTVTVSS VL: QSVLTQPPSMSGAPGQRVTISCTGSSSNIGAGYDVHWYQQLPGTAPKLLIYNNSNRPSGVPDRFSASKSGTSASLAITGLQAEDEADYYCQSYDSSLSGYVFGTGTRVTVP				> 25 µg/mL	
ADI-41353 (antibody, V domains shown) VH: EVQLVESGVEVKKPGESLKISCRGSGYSFHNYWIAWVRQKPGKGLEYMGTIYVDDSDTIYSPSFQGEVTISADKSINTAYLQWNSLKASDTANYYCARQMDFYFDVWGRGTLVTVSS VL: SYELTQPPSVSVSPGQTARITCSGDPLPRESAYWYQQKPGQAPVVVIFNDIERPLGIPERFSGSRSGTTVTLTISGAQAEDEADYYCQSADSRKTFVFGSGTKLTVL				> 25 µg/mL	
ADI-21033 (antibody, V domains shown) VH: QVQLVQSGAEVRKPGDSLKISCKFSENIFTTYYWTGWVRQMPGRGLEWMGIIFPGDSDTRYSPSFQGHVTISVDKSIATAFLQWSSLKASDSAMYYCARAKYEGSFDMWGQGTMVTVSS VL: DIQVTQSPSSLSASVGDRVSITCQASQDIRNRLNWYQQKPGKAPKLLIYDASILETGVPSRFSGSGSGTDFTFSISSLQPEDFATYYCQQYDSFSLFTFGPGTKVEIK	1.4 nM	no binding	0.193 nM		
ADI-41358 (antibody, V domains shown) VH: EVQLVESGGGLVKPGGSLRLSCEASGFTLTSYSMNWVRQAPGKGLEWVSSISSSSTYIHYADSVKGRFTISRDNAKNSLYLQMNSLRAEDTAVYYCARDKVMVTKYNGMDVWGQGTTVTVSS VL: QSVLTQPPAVSGAPGQRVTISCTGSSSNIGAGHDVHWYQQLPGTAPKLLIYGNSNRPSGVPDRFSGSKSGTSASLAITGLQAGDEADYYCQSYDSSLSGSLFGGGTKLTVL				0.389 µg/mL	
ADI-21038 (antibody, V domains shown) VH: QVQLVQSGAEVKKPGESLKISCQGFGFSFTSYWIGWVRQTPGKGLEWMGTIYPGDSETRKSPSIQGQVTFSADRSISTAYLQWSGLTASDTAVYYCARLKGGWGTTMAGIRDYFYYGLDVWGQGTTVTVSS VL: EIVLTQSPGTLSLSPGERATLSCRASQSVSSSYLAWYQQKPGQAPRLLIYGASSRATGIPDRFTGSGSGTDFTLTISRLEPEDFAVYYCQQYATSLGGFTFGPGTKVDIK	16 nM		2.93 nM		1.45 nM
ADI-21059 (antibody, V domains shown) VH: QVQLVQSGAEVKRPGDSLKISCKGSGYSFTTSWIGWVRQVPGKGLEWMGIIYPGDSNTVYGPSLQGQVTISADKSTNTAYLQWSSLKASDTAMYYCARRDGGTDYLSDAFDIWGQGTFVTVSS VL: DIQMTQSPSSLSASVGDRVTITCRTSQNIVIYLNWYQQKPGKAPKLLIFAASSLPSGVPSRFSGSGSGTDFTLTISSLQPEDVATYYCQQSYNTPGTFGQGTKVDIK	9.43 nM	no binding	3.05 nM		
ADI-21052 (antibody, V domains shown, also called Ab 300) VH: QVQLVQSGAEVKKPGASVKVSCKASGYTFTSYGISWVRQAPGQGLEWMGWISAYNGNTNYAQNLQGRVTMTTDTSTSTAYMELRSLRSDDTAMYYCARDAFSRVGYWYFDLWGRGTLVTVSS VL: SYELTQPPSVSVAPGQAARITCGGNNIGSKTVHWYQQKPSQAPVLVVYDDSDRPSGIPERFSGSNSGNTATLTISRVEAGDEADYYCQVWDSSGDHPVFGGGTKLTVL	0.11 nM		0.126 nM		18.4 nM
ADI-21044 (antibody, V domains shown) VH: QVQLVQSGAELKKPGESLKISCKTSGYTFANYWIGWVRQMPGKGLEWMGIIYPGDSDTRYSPSFQGQVTFSADKSINSAYLQWHSLKASDSAIYYCARRFSPDYSDGAAPPTLSDAFDVWGQGTTVTVSS VL: DIVMTQSPSSLSASVGDRVTITCRASQNINIYLNWYQQKPGKAPKLLIYAASTLQSGVPSRFSGSGSATDFTLTISSLQPEDFATYYCQQSYRTPNDFGRGTKVDIK	5.85 nM	no binding	4.51 nM		
ADI-21045 (antibody, V domains shown) VH: EVQLVESGGGLVKPGGSLRLSCLASGFKFRSYSMNWVRQAPGTGLVWVASISASSSFIFYADSLKGRFTISRDNDKNSLYLQMNSLTVEDTAVYYCVRDMSGISSGGKTFDYWGQGTLVTVSS VL: QSVLTQPPSVSGAPGQRVTISCTGSSSNLGAGYDVQWYQQLPGTAPKLLIYGNNNRPSGVPDRFSGSKSGTSASLAITGLRAEDEADYYCQSYDTSPVFGGGTKLTVL	0.596 nM	no binding	0.456 nM		
ADI-21050 (antibody, V domains shown) VH: QVQLVQSGAEVKKPGASVKVSCTASGYTFANNGISWVRQAPGQGLEWMGWISAYNGNTKYAQTVQGRVTLTTDTSTSTAYMELRSLTSDDTAVYYCAREMGVDAAATFDYWGQGTLVTVSS VL: EIVMTQSPLFLSVTLGQPASISCRSSQSLVYSDTNTYLTWFQQRPGQSPRRLIYKVSNRDSGVPDRFSGSGSGTYFTLKISRVEAEDIGVYYCMQAIHWPRTFGQGTKLEIK	0.323 nM	no binding	0.362 nM		
